Broadly, the Kd is the free concentration of one partner at which half of the binding sites on the other are occupied at equilibrium, for simple one-to-one binding.

The results in this text go back to patent publication US20030104532A1 (CHILDREN S MEDICAL CENTER, published 2003).

Test [1] has as its target T1, Human VEGF165R/NP-1 (neuropilin-1) (human, UniProt O14786 22-923).
T1 construct: Expressed from the cDNA in PAE cells (PAE/NP-1, PAE/KDR/NP-1) and COS-7 cells; also called VEGF165 receptor; clone A2
Nature of the test: Scatchard analysis (LIGAND program) of ^125I-VEGF165 binding to PAE/NP-1 cells.
Description: Scatchard Analysis of VEGF₁₆₅ Binding to VEGF₁₆₅R/NP-1.7A. Increasing amounts of ¹²⁵I-VEGF₁₆₅ (0.1-50 ng/ml) were added to subconfluent cultures of PAE cells transfected with human VEGF₁₆₅R/NP-1 cDNA (PAE/NP-1 cells) in 48 well dishes. Non-specific binding was determined by competition with a 200-fold excess of unlabeled VEGF₁₆₅. After binding, the cells were washed, lysed and the cell-associated radioactivity was determined using a y counter.
The specific activity ranged from 40,000-100,000 cpm/ng protein. […] VEGF binding was quantitated by measuring the cell-associated radioactivity in a y-counter (Beckman, Gamma 5500). The counts represent the average of three wells. All experiments were repeated at least three times and similar results were obtained.

The target in test [2] is T2, Human neuropilin-2 (NP-2) (human, UniProt O60462 21-931).
T2 sequence: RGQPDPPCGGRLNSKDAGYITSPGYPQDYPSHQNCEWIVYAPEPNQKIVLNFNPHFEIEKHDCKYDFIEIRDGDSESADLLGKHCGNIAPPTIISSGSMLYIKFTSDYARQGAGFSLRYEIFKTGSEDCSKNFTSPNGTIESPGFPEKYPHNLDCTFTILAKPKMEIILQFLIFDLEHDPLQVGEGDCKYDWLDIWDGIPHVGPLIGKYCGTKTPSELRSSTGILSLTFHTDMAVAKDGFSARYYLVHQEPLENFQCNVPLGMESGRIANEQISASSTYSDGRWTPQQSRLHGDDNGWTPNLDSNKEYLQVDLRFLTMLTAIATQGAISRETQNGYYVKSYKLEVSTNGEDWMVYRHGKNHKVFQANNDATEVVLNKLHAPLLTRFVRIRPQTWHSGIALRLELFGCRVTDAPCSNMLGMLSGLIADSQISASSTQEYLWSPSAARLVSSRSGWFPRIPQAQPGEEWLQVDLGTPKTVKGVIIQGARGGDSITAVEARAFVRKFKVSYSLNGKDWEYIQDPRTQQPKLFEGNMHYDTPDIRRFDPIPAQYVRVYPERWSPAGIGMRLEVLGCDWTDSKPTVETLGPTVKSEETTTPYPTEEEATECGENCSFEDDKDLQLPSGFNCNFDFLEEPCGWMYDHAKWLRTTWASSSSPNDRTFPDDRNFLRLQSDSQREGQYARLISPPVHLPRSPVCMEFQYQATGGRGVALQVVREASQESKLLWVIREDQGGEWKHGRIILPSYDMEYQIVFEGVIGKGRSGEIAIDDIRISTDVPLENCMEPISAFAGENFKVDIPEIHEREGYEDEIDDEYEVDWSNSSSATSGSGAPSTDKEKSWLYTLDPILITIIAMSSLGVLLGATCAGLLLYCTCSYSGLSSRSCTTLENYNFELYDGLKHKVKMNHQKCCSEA
Nature of the test: expression cloning: one of the seven single clones positive for ^125I-VEGF165 binding to transfected COS-7 cells.
Description: The E. coli were sub-divided into 50 separate pools and plated onto 50 LB ampicillin dishes, with each pool representing approximately 100 clones. DNA made from these pools was transfected into COS-7 cells which were screened for ¹²⁵I-VEGF₁₆₅ binding as described above. […] Each pool was plated onto separate LB ampicillin dishes and DNA was prepared from 96 individual colonies and screened in a 96-well two dimensional grid for ¹²⁵I-VEGF₁₆₅ binding to tranfected COS-7 cells as described above. […] The seven positive plasmid clones were amplified and their DNA was analyzed by restriction enzyme digestion. […] One clone from each group was submitted for automated DNA sequencing.
E. coli transformed with the plasmid library were divided into pools.

For test [3], the target named is T3, Neuropilin-1 on Dunning rat prostate carcinoma AT3.1 cells (rat, UniProt Q9QWJ9 22-922).
T3 construct: whole, on cells; also called VEGF165R/NP-1 (AT3.1 cells)
Nature of the test: ^125I-VEGF165 cross-linking to Dunning rat prostate carcinoma cells.

The target of test [4] is T1, Human VEGF165R/NP-1 (neuropilin-1). As to the kind of experiment: cell-based or functional assay.
Test [5] has the same target. As to the kind of experiment: ^125I-VEGF121 binding and chemical cross-linking to PAE/NP-1 cells, SDS-PAGE, autoradiography. The procedure:
FIG. 8. […] The binding was carried out in the presence of 1 μg/ml heparin. […] The cells were lysed and proteins were resolved by 6% SDS-PAGE. The polyacrylamide gel was dried and exposed to X-ray film.

B1: Human recombinant VEGF165 (ligand, UniProt P15692-4 27-191, looked up)
chain: APMAEGGGQNHHEVVKFMDVYQRSYCHPIETLVDIFQEYPDEIEYIFKPSCVPLMRCGGCCNDEGLECVPTEESNITMQIMRIKPHQGQHIGEMSFLQHNKCECRPKKDRARQENPCGPCSERRKHLFVQDPQTCKCSCKNTDSRCKARQLELNERTCRCDKPRR
modifications: radio-iodinated (^125I, IODO-BEADS) in the binding and cross-linking experiments; coupled to Sepharose beads in the affinity purification
notes: mature
With B1, the Kd in test [1] is approximately 0.32 nM. Also, the binding result in test [2] and in test [3] was “binds” each time. In addition, the “231 breast carcinoma cell motility (Boyden chamber motility assay)” value in test [4] came out at 2 fold.

B2: Human recombinant VEGF121 (ligand, UniProt P15692-9 27-147, looked up)
chain: APMAEGGGQNHHEVVKFMDVYQRSYCHPIETLVDIFQEYPDEIEYIFKPSCVPLMRCGGCCNDEGLECVPTEESNITMQIMRIKPHQGQHIGEMSFLQHNKCECRPKKDRARQEKCDKPRR
modifications: radio-iodinated (^125I, IODO-BEADS) in the cross-linking experiments
notes: mature
In the case of B2, in test [5], the binding result is “no binding (tested: 10 ng/ml)”.
